{
  "source": "patent US20180179274A1",
  "about": "(INSTITUTE FOR RESEARCH IN BIOMEDICINE, published 2018)",
  "binders": {"B1": {"name": "MGD21 (antibody)", "VH": "EVQLVETGPGLMKTSGTLSLTCAVSGDYVNTNRRWSWVRQAPGKGLEWIGEVHQSGRTNYNPSLKSRVTISVDKSKNQFSLKVDSVTAADTAVYYCARASPLKSQRDTDLPRPSISAEPGTVIPLGSHVTFVCRGPVGVQTFRLERERNYLYSDTEDVSQTSPSESEARFRIDSVNAGNAGLFRCIYYKSRKWSEQSDYLELVVKGEDVTWALSQSQDDPRACPQGELPISTDIYYVDVWGNGTTVTVSS", "VL": "AIRMTQSPSSLSASPGDKVSITCRASQHINDSLAWFQQRPGKAPKLLIYGASNLHSGVPSRFSGTGSGTDFTLTITGLQSEDFATYFCQQCNCFPPDFGQGTRLEIK", "notes": "Donor D; LAIR-1 insert in CDRH3; variable regions only; also called MGD21 ANTIBODY; mAb MGD21"}},
  "target": "T1, RIFIN PF3D7_1400600 (Plasmodium falciparum)",
  "T1 construct": "A-type RIFIN; on transfected CHO cells, and native from 3D7-MGD21^+ IEs in the immunoprecipitation",
  "T1 chain": "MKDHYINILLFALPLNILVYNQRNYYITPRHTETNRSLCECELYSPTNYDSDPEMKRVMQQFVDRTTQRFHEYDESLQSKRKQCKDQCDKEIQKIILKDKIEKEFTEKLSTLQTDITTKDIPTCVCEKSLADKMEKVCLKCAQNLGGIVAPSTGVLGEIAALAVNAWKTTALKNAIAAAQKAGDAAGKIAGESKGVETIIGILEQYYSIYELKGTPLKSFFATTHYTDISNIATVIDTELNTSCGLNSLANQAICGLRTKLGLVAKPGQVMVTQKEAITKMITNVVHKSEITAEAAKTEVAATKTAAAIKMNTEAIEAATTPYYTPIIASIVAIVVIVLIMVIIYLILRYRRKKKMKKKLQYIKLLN",
  "test": "immunoprecipitation and LC-MS",
  "data": [
    {"binder": "B1", "values": [
      {"measurement": "log2 fold change (MGD21 immunoprecipitates of 3D7-MGD21^+ against 3D7-MGD21^- IEs)", "result": 2, "unit": "log2 fold"}
    ]}
  ]
}
